One protein from FireProtDB (doi:10.1002/pro.5560050915) can be followed below.

For the data set the following is noted: Bos taurus; pH 8.5; Thermal; DSC; ascorbate 1 mM; whole UniProt chain shown.

B1: Adrenodoxin, mitochondrial wild type, P00257 (protein)
chain: MAARLLRVASAALGDTAGRWRLLARPRAGAGGLRGSRGPGLGGGAVATRTLSVSGRAQSSSEDKITVHFINRDGETLTTKGKIGDSLLDVVVQNNLDIDGFGACEGTLACSTCHLIFEQHIFEKLEAITDEENDMLDLAYGLTDRSRLGCQICLTKAMDNMTVRVPDAVSDARESIDMGMNSSKIE
Regarding B1, the Tm (as a rule, the temperature at which the thermal transition is half complete) was 51.4 °C; the “heat capacity change of unfolding” value turned out to be 1.79 kcal/mol/K; the “unfolding enthalpy (calorimetric)” value was 84.8 kcal/mol.
